Laboratory results from US20240425589A1, “CYTOTOXICITY-INDUCING THERAPEUTIC AGENT FOR USE IN TREATMENT OF CANCER” (CHUGAI SEIYAKU KABUSHIKI KAISHA, priority 2021, published 2024).

Assays:
recombinant cyno CD3eg = biological target: T1, recombinant cyno CD3eg (Macaca fascicularis, UniProt Q95LI5); assay: Biacore 8K SPR affinity to cyno CD3eg; format: binding, cynomolgus; settings: 25 degree C, pH 7.4
T1 sequence (Q95LI5 22-117 limits assumed): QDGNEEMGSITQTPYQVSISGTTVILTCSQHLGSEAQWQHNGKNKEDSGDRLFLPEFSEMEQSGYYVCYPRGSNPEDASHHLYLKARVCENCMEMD
T1 sequence (Q95LI7 23-115 partner limits assumed): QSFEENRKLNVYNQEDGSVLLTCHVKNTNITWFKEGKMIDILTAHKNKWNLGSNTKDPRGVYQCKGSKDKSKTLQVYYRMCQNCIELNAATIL
Protocol: The binding affinity of the anti-CLDN6/Dual-Fab tri-specific antibody against recombinant human and cyno CD3eg (gamma and epsilon subunits of CD3) at pH 7.4 was determined at 25 degree C. using Biacore 8K instrument (GE Healthcare). The binding affinity of the anti-CLDN6/Dual-Fab tri-specific antibody against recombinant human and cyno CD137 at pH 7.4 was determined at 37 degree C. using Biacore 8K instrument (GE Healthcare). Anti-human Fc (GE Healthcare) antibody was immobilized onto all flow cells of a CM4 sensor chip using amine coupling kit (GE Healthcare). Tested antibody and analytes were prepared in ACES pH 7.4 containing 20 mM ACES, 150 mM NaCl, 0.05% Tween 20, 0.005% NaN3. Anti-CLDN6/Dual-Fab tri-specific antibody was captured onto the sensor surface by anti-human Fc. Antibody capture levels were aimed at 300 resonance unit (RU). Recombinant CD3eg and CD137 were injected at both 500 and 2000 nM, followed by dissociation. Sensor surface was regenerated each cycle with 3M MgCl2. […] Binding affinities were determined by processing and fitting the data to 1:1 binding model using Biacore Insight Evaluation software (GE Healthcare).

OVCAR3 = OVCAR3 xenograft in huNOG mice, combination with carboplatin; format: in vivo; settings: 56 days after transplantation; CS4135 0.1 mg/kg iv days 38, 45 (sequential: 48, 55), carboplatin 60 mg/kg ip days 38, 45
Protocol: In this test, NOG (huNOG) mice (described in the aforementioned Example 13) transplanted with ovarian cancer cell line OVCAR3 and human CD34-positive cells were used. The OVCAR3 cell line was transplanted subcutaneously to the right flank of the mice, and the mice were divided into groups 38 days after transplantation. Individuals whose tumor volume reached 119 to 210 mm^3 were divided into groups. Vehicle 1 and CS4135 were administered into the mouse tail vein 38 and 45 days after transplantation. PBS containing 0.05% Tween-20 was used as Vehicle 1. Vehicle 2 and carboplatin (Bristol Myers Squibb Company) were administered intraperitoneally to the mice 38 and 45 days after transplantation. Physiological saline was used as Vehicle 2.
Tumor volume was measured 38, 42, 45, 48, 52, and 56 days after transplantation, and the average tumor volume was indicated for each group. The tumor volume was calculated by the following equation: […]
(§1) Tumor Growth Inhibition (TGI) was calculated by the following equation: […]

CLDN6-LLC1 = CLDN6-LLC1 syngenic model, CS4135 single agent; format: in vivo, hCD137 KI/hCD3Tg mice
Protocol: In this test, lung cancer cell line LLC1 forced to express claudin 6 (CLDN6) (CLDN6-LLC1) and hCD137 KI/hCD3Tg mice (described in the above-mentioned Example 7) were used. The CLDN6-LLC1 cell line was transplanted subcutaneously to the right flank of the mice, and the mice were divided into groups 7 days after transplantation. Individuals whose tumor volume reached 262 to 353 mm^3 were divided into groups. The vehicle and CS4135 were administered into the mouse tail vein 8 days after transplantation. PBS containing 0.05% Tween-20 was used as the vehicle.
Tumor volume was measured 7, 10, and 14 days after transplantation, and the average tumor volume was indicated for each group. The tumor volume was calculated by the following equation: […]
as §1
The resected tumor tissue was weighed, and then a lymphocyte fraction was isolated. The lymphocyte fraction obtained by tissue disruption using a Tumor Dissociation Kit, mouse (Miltenyi Biotec) and then by use of a cell strainer was used. The obtained tumor-derived lymphocyte fraction was subjected to flow cytometry (FCM) analysis.
FCM was used to analyze the number of tumor-derived T cells. The number of CD8-positive T cells per tumor weight was calculated using the tumor weight value and the number of CD8-positive T cells according to FCM. […]

B1: PPU4135: anti-CLDN6/Dual-Fab tri-specific antibody, chains SEQ ID NOs 42, 51, 56, 69; CS4135 same antibody (protein)
chain 1: QVQLVESGGGVVQPGGSLRLSCAASGFTFSSYTMSWVRQAPGQGLEWMGTISSGGGRTYYPDSVKGRFTISRDNSKNTLYLQMNSLRDEDTAVYYCARGDYRYDGFAYWGEGTLVTVSSASTKGPSVFPLAPSSKSTSGGTAALGCLVEDYFPEPVTVSWNSGALTSGVHTFPAVLESSGLYSLSSVVTVPSSSLGTQTYICNVNHKPSNTKVDKRVEPKSCDKTHTCPPCPAPEAAGGPSVFLFPPKPKDTLMISRTPEVTCVVVDVSHEDPEVKFNWYVDGVEVHNAKTKPREEQYASTYRVVSVLTVLHQDWLNGKEYKCKVSNKALPAPIEKTISKAKGQPREPQVYTLPPSREEMTKNQVSLTCLVKGFYPSDIAVEWESNGQPENNYKTTPPVLDSDGSFFLYSKLTVDKSRWQQGNVFSCSVMHEALHNHYTQESLSLSP
chain 2: DIQMTQSPSSLSASVGDRVTITCRASYNIDSYLAWYQQKPGKAPELLIYYSTLLVDGVPDRFSGSRSGTDFTLTISSLQPEDFATYYCQHYYSIPYTFGQGTKVEIERTVAAPSVFIFPPSDEQLKSGTAKVVCLLNNFYPREAKVQWKVDNALQSGNSKESVTEQDSKDSTYSLSSTLTLSKADYEKHKVYACEVTHQGLSSPVTKSFNRGEC
chain 3: QVQLVESGGGLVQPGRSLRLSCAASGFKFSNVWFHWVRQAPGKGLEWVAQIKDYYNAYAAYYAPSVKGRFTISRDDSKNSIYLQMNSLKTEDTAVYYCHYVHYASASTLLPAEGVDAWGQGTTVTVSSASTKGPSVFPLAPSSKSTSGGTAALGCLVKDYFPEPVTVSWNSGALTSGVHTFPAVLKSSGLYSLSSVVTVPSSSLGTQTYICNVNHKPSNTKVDKRVEPKSCDKTHTCPPCPAPEAAGGPSVFLFPPKPKDTLMISRTPEVTCVVVDVSHEDPEVKFNWYVDGVEVHNAKTKPREEQYASTYRVVSVLTVLHQDWLNGKEYKCKVSNKALPAPIEKTISKAKGQPREPQVYTLPPSRKEMTKNQVSLTCLVKGFYPSDIAVEWESNGQPENNYKTTPPVLDSDGSFFLYSKLTVDKSRWQQGNVFSCSVMHEALHNHYTQKSLSLSP
chain 4: DIVMTQSPLSLPVTPGEPASISCQPSQEVVHMNRNTYLHWYQQKPGQAPRLLIYKVSNRFPGVPDRFSGSGSGTDFTLKISRVEAEDVGVYYCAQGTSHPFTFGQGTKLEIKRTVAAPSVFIFPPSDEQLKSGTAEVVCLLNNFYPREAKVQWKVDNALQSGNSEESVTEQDSKDSTYSLSSTLTLSKADYEKHKVYACEVTHQGLSSPVTKSFNRGEC
- ka (recombinant cyno CD3eg): 101000 M⁻¹ s⁻¹
- kd (recombinant cyno CD3eg): 0.0332 s⁻¹
- Tumor growth inhibition: TGI (OVCAR3): 18%
- Tumor growth inhibition: TGI (CLDN6-LLC1; 14 days after transplantation, 0.25 mg/kg iv day 8): 71%
- number of CD8-positive T cells per tumor weight (CLDN6-LLC1; 14 days after tumor transplantation (Day 6 after administration), 0.25 mg/kg): significant increase
